# In article PMC314469, “Protein Interaction Networks by Proteome Peptide Scanning” (PLoS Biology, 2004):
# Target: T1, Abp1 SH3 (ABP1_YEAST), P15891
# T1 chain: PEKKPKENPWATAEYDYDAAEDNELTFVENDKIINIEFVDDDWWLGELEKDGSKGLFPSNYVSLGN
# Assay: SPOT array
row,Binder,"normalised SPOT signal, Boehringer light units (BLU); mean over the file's lines of this peptide"
1,MNDDRETPPKRKP [YAL026C 1-13],6180
2,NSVDRHAFANPDKP [YLR153C 95-108],103
3,MKTTDTYPSLPKP [YMR205C 179-191],97.9
4,NDRFSHTPQQQRP [YNL263C 17-29],164
5,MEVGGVRNYVPQKP [YKL095W 108-121],68
6,MKHFFRLPTAFRP [YHR120W 1-13],538
7,MPQNQGFPPQFKP [YCL037C 234-246],308
8,MQDYRPSPQSARP [YLL043W 81-93],310
9,MTSNNLPPGKRKP [YBR222C 343-355],4880
10,LWTNDDYLQQPARP [YER136W 199-212],30
11,MDTMANILYYPQKP [YOR151C 789-802],117
12,LYALVLKPVGKKP [YOR109W 19-31],109
13,MQLGSLVPSSLKP [YLR413W 258-270],3590
14,MRSHMEQPQSIKP [YOR329C 457-469],1740
15,MIEPAYRNGGPVKP [YOR093C 939-952],63.4
16,MNPKSSTPKIPRP [YPR065W 1-13],1070
17,MFARLANPAHFKP [YOR226C 1-13],2660
18,NDEEIKKPTDGKP [YMR012W 785-797],33.6
19,MTAAKPNPYAAKP [YDL182W 1-13],2430
20,NEAAKPSFSFPGKP [YOR098C 607-620],38
21,NESFSLPPPQPKP [YFL044C 78-90],61.2

row,Binder,"normalised SPOT signal, Boehringer light units (BLU); mean over the file's lines of this peptide"
1,MAKSQNKPKREKP [YDR381W 195-207],2220
2,LYPQGYDPTDPSRP [YDR093W 1465-1478],57.7
3,MKLEGTYEKIPEKP [YAL024C 1062-1075],201
4,MTPGASANALPPKP [YDL195W 796-809],91.9
5,MNIRPSISMRPIKP [YNL105W 40-53],9140
6,MSELHALLTFPERP [YDR465C 1-14],18.5
7,NEDELDSPVQKKP [YKR086W 102-114],54.4
8,MARGSHFPILNRP [YNL013C 89-101],2480
9,MAKEDTGVTAPKKP [YOR086C 1-14],119
10,MSISSKIRPTPRKP [YER118C 1-14],2450
11,NATGNHTPKWFRP [YLR308W 199-211],100
12,NATGKHFPKYFRP [YLR307W 189-201],146
13,MGARNVQPTMFKP [YDL164C 244-256],6660
14,MSKLLKHGWKPLRP [YJR126C 471-484],267
15,LYEQFRNPLRSRP [YDR389W 229-241],950
16,MDDFVTPPDEVKP [YBR023C 712-724],40.3
17,NESAPLQPFPERP [YFL041W 455-467],26.2
18,NDRNNADPEKKKP [YDR457W 2434-2446],206
19,LYMDKFIKLIPMRP [YDR479C 283-296],4270
20,MEEPFIWPEEPRP [YDR405W 164-176],184
21,MRSNPQQPPQDKP [YPL204W 475-487],264
